Sequences and labels used below:
T1: human LAG3 expressed on HEK293 cells (human, UniProt P18627 23-525)
T1 construct: also called hLAG3; HEK293/hLAG3
T1 sequence: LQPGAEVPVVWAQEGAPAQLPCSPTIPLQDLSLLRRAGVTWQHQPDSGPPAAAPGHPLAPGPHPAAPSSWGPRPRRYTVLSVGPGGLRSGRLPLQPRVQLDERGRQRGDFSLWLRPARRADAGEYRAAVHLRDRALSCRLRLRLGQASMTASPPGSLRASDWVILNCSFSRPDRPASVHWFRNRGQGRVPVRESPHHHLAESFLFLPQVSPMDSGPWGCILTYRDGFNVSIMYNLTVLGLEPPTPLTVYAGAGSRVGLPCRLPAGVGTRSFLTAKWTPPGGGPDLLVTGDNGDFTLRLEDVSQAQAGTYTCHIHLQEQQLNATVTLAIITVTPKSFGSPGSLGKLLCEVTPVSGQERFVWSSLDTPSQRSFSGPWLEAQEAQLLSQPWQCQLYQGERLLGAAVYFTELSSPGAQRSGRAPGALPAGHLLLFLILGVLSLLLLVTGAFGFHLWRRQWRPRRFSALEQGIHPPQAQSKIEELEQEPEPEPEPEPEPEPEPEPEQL

T2: human LAG3 chimera (extracellular domain of human LAG3 and trans-membrane/cytoplasmic domain of human CD300a) … (human, UniProt P18627 23-450; Q9UGN4 181-299, limits assumed)
T2 sequence (looked up): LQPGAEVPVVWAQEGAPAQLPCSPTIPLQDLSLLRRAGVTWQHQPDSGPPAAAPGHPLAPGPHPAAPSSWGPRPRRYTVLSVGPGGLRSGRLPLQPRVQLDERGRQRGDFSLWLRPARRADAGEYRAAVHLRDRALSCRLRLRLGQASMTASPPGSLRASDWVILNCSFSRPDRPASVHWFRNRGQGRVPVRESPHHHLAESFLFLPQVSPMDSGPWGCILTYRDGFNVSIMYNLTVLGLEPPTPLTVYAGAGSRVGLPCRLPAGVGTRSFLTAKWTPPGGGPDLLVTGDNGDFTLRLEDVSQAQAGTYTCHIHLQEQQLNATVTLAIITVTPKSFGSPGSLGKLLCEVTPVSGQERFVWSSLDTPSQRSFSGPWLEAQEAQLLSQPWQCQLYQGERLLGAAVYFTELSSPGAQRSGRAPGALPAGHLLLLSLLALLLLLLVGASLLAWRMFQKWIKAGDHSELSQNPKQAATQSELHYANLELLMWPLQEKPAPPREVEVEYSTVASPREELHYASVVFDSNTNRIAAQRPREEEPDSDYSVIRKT

B1: H4sH15479P (antibody, V domains shown)
VH: QVQLQQWGAGLLNPSETLSLTCAVYGGAFSDYYWNWIRQPPGKGLEWIGEINHRGSTNYNPSLKSRVTISVDTSKNQFSLRMSSVTAADAAVYYCARGEDYDIWNGYYQEKWGQGTLVTVSS
VL: EIVLTQSPATLSLSPGERATLSCRASQSISTYLAWYQQKPGQAPRLLIYDASKRATGIPARFSGSGSGTDFTLTISSLEPEDFVVYYCHQRSNWPLTFGGGTKVEIK
B2: H4H17828P2 (antibody, human IgG4, V domains shown)
VH: EVQLVESGGGLVQPGGSLRLSCAASGFTFKTYAMSWVRQAPGRGLEWVSGISGSGSTSYYADSVKGRFTISRDNYKKTLSLQMNSLRAEDTAVYYCALDIMATVGGLFNNWGQGTLVTVSS
VL: not shown
notes: H4H = human IgG4 Fc with S108P hinge mutation
B3: H4H17826P2 (antibody, human IgG4, V domains shown)
VH: EVQLVESGGGLVQPGGSLRLSCAASGFTFSSYEMNWVRQAPGKGLEWVSYISSSGNTKDYAGSVKGRVTISRDNAKNLLYLQMNSLRAEDTAVYHCARDGGHYDILTGSMSYYYYALDVWGQGTTVTVSS
VL: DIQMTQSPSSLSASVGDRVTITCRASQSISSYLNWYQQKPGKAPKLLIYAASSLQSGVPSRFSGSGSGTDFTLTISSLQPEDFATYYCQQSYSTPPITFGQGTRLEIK
notes: as for B2
B4: H4sH15462P (antibody, V domains shown)
VH: QVQLVQSGAEVKKPGASVKVSCKASGYTFTNYYIHWVRQAPGQGLDWMGIINPGGGNTNYAQKFLGRVTMTRDTSTTTVYMELSSLRSEDTAIYYCARENWNSYFDNWGQGTLVTVSS
VL: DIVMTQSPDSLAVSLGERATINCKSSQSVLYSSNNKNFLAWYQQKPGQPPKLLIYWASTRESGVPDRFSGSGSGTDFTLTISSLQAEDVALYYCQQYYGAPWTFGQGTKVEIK
notes: H4sH = human IgG4 Fc with 2 or more amino acid changes as disclosed in US20140243504
B5: H4H15462P (antibody, human IgG4, V domains shown)
VH: B4 VH
VL: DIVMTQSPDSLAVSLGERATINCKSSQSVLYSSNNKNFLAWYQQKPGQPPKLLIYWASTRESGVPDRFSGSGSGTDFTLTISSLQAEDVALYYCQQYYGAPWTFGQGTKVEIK
notes: as for B2

By IC50 is commonly meant the concentration that inhibits the measured activity by half. What is called EC50 is the concentration at which the effect is half-maximal. Read a low EC50 as an effect from little substance.

The first assay has as its target T1, human LAG3 expressed on HEK293 cells. In words: cell adherence assay, blocks A20 (mouse MHCII) cells on HEK293-hLAG3. Here is the method:
Cells were plated into sterile Nunclon™ Delta 96-Well MicroWell™ Black Optical Bottom Plates (Thermo Scientific). The wells from the perimeter of the plate were not included in the assay design to avoid edge effects.
On the day of treatment, all antibodies were serially (1:3) diluted in RPMI media (without FBS or supplements added). The 9-point dilution ranged between 45 pM to 300 nM, with the last dilution point containing no mAb. […] While the plated HEK293-LAG3 cells were incubating with the test or control antibodies, non-adherent B-cells (RAJI or A20) were labeled with Calcein AM using the following procedure. RAJI and A20 suspension cells were harvested and centrifuged at 1,200 rpm for 5 minutes. Cell pellets were resuspended in 1×PBS and counted. Cells were washed with RPMI, and resuspended in RPMI at a concentration of 10⁶ cells per 1 ml. Cells were labeled by adding 5 μL of Calcein AM per 1 ml of cell suspension and incubated for 30 min at 37° C., at 5% CO₂. […] Subsequently, 10 μL of BD Pharmingen Fc Block (0.5 mg/mL) was added per 1 ml of the Calcein AM labeled cells, which were incubated at RT for 10 minutes. The Calcein AM-stained, Fc-blocked RAJI or A20 cells were resuspended in RPMI to a final concentration of 3×10⁶ cells per 1 ml and subsequently used in the adherence assay.
The labeled suspension cells were incubated with the HEK293 monolayer for 1 hour at 37° C., at 5% CO₂.
For the molecule B1, the IC50 was found to be 6.3 nM.

B2 displayed an IC50 of 16 nM.

B3 gave a concentration for half-maximal inhibition (IC50) of 10 nM.

On to B4, for which the IC50 came out at 3.6 nM. Against the preceding molecule, the IC50 is about 2.8-fold lower.

As for B5, the half-inhibitory concentration (IC50) is 7.1 nM.

A further assay shares this target. In words: electrochemiluminescence cell binding, HEK293-hLAG3. The procedure:
To investigate the ability of a panel of anti-LAG3 monoclonal antibodies to bind cell-surface expressed LAG3, an in vitro binding assay utilizing human and monkey LAG3 expressing cell lines in an electrochemiluminescence based detection platform [Meso Scale Diagnostics, Rockville, Md.—(MSD)] was developed.
Experiments were carried out according to following procedure. Cells from the three cell lines described above were rinsed once in 1×PBS buffer without Ca²⁺/Mg²⁺ followed by 10-minute incubation at 37° C. with Enzyme Free Cell Dissociation Solution. […] Approximately 10,000 cells per well in the cell-washing buffer were seeded into the 96-well carbon electrode plates (MULTI-ARRAY high bind plate, MSD) and incubated for 1 hour at 37° C. to allow the cells to adhere. Nonspecific binding sites were blocked by 2% BSA (w/v) in PBS for 1 hour at room temperature. […] The plates were then washed to remove the unbound antibodies using an AquaMax2000 plate washer (MDS Analytical Technologies). The plate-bound antibodies were detected with a SULFO-TAG™-conjugated anti-human IgG antibody (MSD) for 1 hour at room temperature. After washes, the plates were developed with the Read Buffer (MSD) according to manufacturer's recommended procedure and the luminescent signals were recorded with a SECTOR Imager 6000 (MSD) instrument. The direct binding signals (in relative light units—RLU) were analyzed as a function of the antibody concentration and the data were fitted with a sigmoidal (four-parameter logistic) dose-response model using Graph Pad Prism™ software. The potency of each antibody was determined by calculating EC₅₀.
Turning to B1, it took 13.4 nM to reach a half-maximal effect (EC50).

Regarding B2, the EC50 worked out at 1.2 nM.

For B3, the EC50 stood at 3.48 nM.

Take B4: the EC50 was determined as 0.853 nM.

Turning to B5, it took 6.85 nM to reach a half-maximal effect (EC50). This EC50 is about 8-fold higher than that of the molecule before.

Another assay addresses T2, human LAG3 chimera (extracellular …). In words: cell-based or functional assay.
In the case of B1, the “EC50, AP1-Luc signaling, bispecific mode” value was determined as 0.0872 nM and the “EC50, AP1-Luc signaling, peptide mode” value came out at 0.135 nM.

In the case of B2, the “EC50, AP1-Luc signaling, bispecific mode” value was greater than 100 nM and the “EC50, AP1-Luc signaling, peptide mode” value amounted to 4.91 nM.

Consider B3, for which the “EC50, AP1-Luc signaling, bispecific mode” value came out at 266 nM and the “EC50, AP1-Luc signaling, peptide mode” value came out at 8.83 nM.

B4: the “EC50, AP1-Luc signaling, bispecific mode” value was found to be 0.148 nM and the “EC50, AP1-Luc signaling, peptide mode” value is 0.486 nM.

With B5, the “EC50, AP1-Luc signaling, bispecific mode” value stood at 0.224 nM and the “EC50, AP1-Luc signaling, peptide mode” value amounted to 0.344 nM.
